Results: PMC9482650, “Quantitative fragmentomics allow affinity mapping of interactomes” (Nature Communications, 2022)

T1: MPP7, Q5T2T1
T1 sequence (Q5T2T1 134-230, limits assumed, looked up): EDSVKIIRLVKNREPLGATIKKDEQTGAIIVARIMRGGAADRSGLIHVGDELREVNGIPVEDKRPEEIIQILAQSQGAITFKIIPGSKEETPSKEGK

T2: GRIP1_7, Q9Y3R0
T2 sequence (Q9Y3R0 999-1096, limits assumed, looked up): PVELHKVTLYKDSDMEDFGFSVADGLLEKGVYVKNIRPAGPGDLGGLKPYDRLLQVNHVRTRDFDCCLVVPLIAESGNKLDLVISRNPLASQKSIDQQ

T3: DVL3, Q92997
T3 sequence (Q92997 244-331, limits assumed, looked up): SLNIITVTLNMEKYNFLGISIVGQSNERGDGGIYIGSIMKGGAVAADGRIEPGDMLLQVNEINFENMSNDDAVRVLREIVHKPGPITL

T4: MPP2, Q14168
T4 sequence (Q14168 180-250, limits assumed, looked up): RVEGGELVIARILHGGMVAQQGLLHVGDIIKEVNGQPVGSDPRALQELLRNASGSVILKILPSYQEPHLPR

T5: APBA2_1, Q99767
T5 sequence (Q99767 563-664, limits assumed, looked up): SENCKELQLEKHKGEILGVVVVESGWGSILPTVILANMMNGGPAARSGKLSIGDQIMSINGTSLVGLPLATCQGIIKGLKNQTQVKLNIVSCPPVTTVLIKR

T6: LNX2_2, Q8N448
T6 sequence (Q8N448 334-432, limits assumed, looked up): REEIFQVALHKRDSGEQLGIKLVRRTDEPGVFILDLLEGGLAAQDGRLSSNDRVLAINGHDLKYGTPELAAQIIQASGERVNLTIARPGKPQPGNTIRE

T7: ARHGEF11, O15085
T7 sequence (O15085 42-136, limits assumed, looked up): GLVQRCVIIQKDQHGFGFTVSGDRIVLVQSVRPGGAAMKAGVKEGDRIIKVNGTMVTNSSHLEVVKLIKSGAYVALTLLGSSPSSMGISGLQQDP

T8: SNTG1, Q9NSN8
T8 sequence (Q9NSN8 52-150, limits assumed, looked up): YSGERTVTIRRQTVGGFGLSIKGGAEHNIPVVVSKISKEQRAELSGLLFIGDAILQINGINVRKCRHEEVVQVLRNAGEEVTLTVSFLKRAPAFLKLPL

T9: TIAM2, Q8IVF5
T9 sequence (Q8IVF5 885-986, limits assumed, looked up): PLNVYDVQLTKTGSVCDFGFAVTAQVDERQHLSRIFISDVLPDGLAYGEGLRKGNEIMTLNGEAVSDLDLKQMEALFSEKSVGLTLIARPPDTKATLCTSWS

T10: HTRA4, P83105
T10 sequence (P83105 378-476, limits assumed, looked up): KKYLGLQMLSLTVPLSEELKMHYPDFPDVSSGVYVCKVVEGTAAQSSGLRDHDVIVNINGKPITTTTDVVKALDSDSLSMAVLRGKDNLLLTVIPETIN

T11: NHERF3_3, Q5T2W1
T11 sequence (Q5T2W1 238-333, limits assumed, looked up): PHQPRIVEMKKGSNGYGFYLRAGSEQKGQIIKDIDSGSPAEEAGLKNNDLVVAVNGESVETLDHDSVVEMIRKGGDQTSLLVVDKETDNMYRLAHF

T12: APBA1_2, Q02410
T12 sequence (Q02410 742-832, limits assumed, looked up): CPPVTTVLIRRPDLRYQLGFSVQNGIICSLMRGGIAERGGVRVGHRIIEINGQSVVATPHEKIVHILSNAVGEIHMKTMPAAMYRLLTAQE

T13: MPDZ_12, O75970
T13 sequence (O75970 1857-1958, limits assumed, looked up): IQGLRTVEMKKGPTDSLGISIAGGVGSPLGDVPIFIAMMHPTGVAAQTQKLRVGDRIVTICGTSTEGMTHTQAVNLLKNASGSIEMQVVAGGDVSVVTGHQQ

T14: PDZD7_3, Q9H5P4
T14 sequence (Q9H5P4 857-944, limits assumed, looked up): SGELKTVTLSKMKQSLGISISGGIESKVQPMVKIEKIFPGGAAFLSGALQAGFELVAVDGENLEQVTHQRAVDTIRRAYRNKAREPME

B1: HPV35-E6_-2P, P27228 (peptide)
chain: SKPTRRETEV

The binders below were run against T1, MPP7, Q5T2T1 (assay: holdup assay). Settings: modified: phospho on T at position -2 from the C-terminal residue.
Set-up: key: below the threshold = too weak to quantify, mostly under pKd 3.1 to 4

Binder | pKd
B1 | below the threshold

These binders were tested against T2, GRIP1_7, Q9Y3R0 (assay: holdup assay). Settings: modified: phospho on T at position -2 from the C-terminal residue.
Set-up: key: below the threshold = too weak to quantify, mostly under pKd 3.1 to 4

Binder | pKd
B1 | below the threshold

Each binder was assayed against T3, DVL3, Q92997 (assay: holdup assay). Settings: modified: phospho on T at position -2 from the C-terminal residue.
Set-up: key: below the threshold = too weak to quantify, mostly under pKd 3.1 to 4

Binder | pKd
B1 | below the threshold

What follows are binders tested against T4, MPP2, Q14168 (assay: holdup assay). Settings: modified: phospho on T at position -2 from the C-terminal residue.
Set-up: key: below the threshold = too weak to quantify, mostly under pKd 3.1 to 4

Binder | pKd
B1 | below the threshold

What follows are binders tested against T5, APBA2_1, Q99767 (assay: holdup assay). Settings: modified: phospho on T at position -2 from the C-terminal residue.
Set-up: key: below the threshold = too weak to quantify, mostly under pKd 3.1 to 4

Binder | pKd
B1 | below the threshold

The binders below were run against T6, LNX2_2, Q8N448 (assay: holdup assay). Settings: modified: phospho on T at position -2 from the C-terminal residue.
Set-up: key: below the threshold = too weak to quantify, mostly under pKd 3.1 to 4

Binder | pKd
B1 | below the threshold

What follows are binders tested against LIMK2, P53671 (assay: holdup assay). Settings: modified: phospho on T at position -2 from the C-terminal residue.
Sequence of LIMK2, P53671 (P53671 143-248): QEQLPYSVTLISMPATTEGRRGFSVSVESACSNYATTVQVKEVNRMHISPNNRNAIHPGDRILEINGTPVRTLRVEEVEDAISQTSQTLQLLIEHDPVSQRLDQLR
Set-up: key: below the threshold = too weak to quantify, mostly under pKd 3.1 to 4

Binder | pKd
B1 | below the threshold

These binders were tested against TJP1_2, Q07157 (assay: holdup assay). Settings: modified: phospho on T at position -2 from the C-terminal residue.
Sequence of TJP1_2, Q07157 (Q07157 181-274): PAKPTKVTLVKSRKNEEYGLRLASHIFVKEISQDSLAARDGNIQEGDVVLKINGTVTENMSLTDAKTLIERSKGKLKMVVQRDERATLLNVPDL
Set-up: key: below the threshold = too weak to quantify, mostly under pKd 3.1 to 4

Binder | pKd
B1 | below the threshold

Each binder was assayed against T7, ARHGEF11, O15085 (assay: holdup assay). Settings: modified: phospho on T at position -2 from the C-terminal residue.
Set-up: key: below the threshold = too weak to quantify, mostly under pKd 3.1 to 4

Binder | pKd
B1 | below the threshold

These binders were tested against T8, SNTG1, Q9NSN8 (assay: holdup assay). Settings: modified: phospho on T at position -2 from the C-terminal residue.
Set-up: key: below the threshold = too weak to quantify, mostly under pKd 3.1 to 4

Binder | pKd
B1 | below the threshold

What follows are binders tested against HTRA2, O43464 (assay: holdup assay). Settings: modified: phospho on T at position -2 from the C-terminal residue.
Sequence of HTRA2, O43464 (O43464 355-458): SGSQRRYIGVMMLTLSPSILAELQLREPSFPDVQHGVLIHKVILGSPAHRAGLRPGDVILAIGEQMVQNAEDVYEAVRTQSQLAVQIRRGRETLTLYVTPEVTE
Set-up: key: below the threshold = too weak to quantify, mostly under pKd 3.1 to 4

Binder | pKd
B1 | below the threshold

Each binder was assayed against MAST2, Q6P0Q8 (assay: holdup assay). Settings: modified: phospho on T at position -2 from the C-terminal residue.
Sequence of MAST2, Q6P0Q8 (Q6P0Q8 1099-1202): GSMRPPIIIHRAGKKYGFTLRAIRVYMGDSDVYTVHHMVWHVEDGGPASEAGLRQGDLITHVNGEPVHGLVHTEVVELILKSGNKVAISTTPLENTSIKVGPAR
Set-up: key: below the threshold = too weak to quantify, mostly under pKd 3.1 to 4

Binder | pKd
B1 | below the threshold

These binders were tested against SCRIB_1, Q14160 (assay: holdup assay). Settings: modified: phospho on T at position -2 from the C-terminal residue.
Sequence of SCRIB_1, Q14160 (Q14160 718-814): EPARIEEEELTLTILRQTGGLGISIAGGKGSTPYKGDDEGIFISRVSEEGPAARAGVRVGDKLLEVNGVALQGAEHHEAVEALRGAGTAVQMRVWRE
Set-up: key: below the threshold = too weak to quantify, mostly under pKd 3.1 to 4

Binder | pKd
B1 | below the threshold

Each binder was assayed against T9, TIAM2, Q8IVF5 (assay: holdup assay). Settings: modified: phospho on T at position -2 from the C-terminal residue.
Set-up: key: below the threshold = too weak to quantify, mostly under pKd 3.1 to 4

Binder | pKd
B1 | below the threshold

What follows are binders tested against T10, HTRA4, P83105 (assay: holdup assay). Settings: modified: phospho on T at position -2 from the C-terminal residue.
Set-up: key: below the threshold = too weak to quantify, mostly under pKd 3.1 to 4

Binder | pKd
B1 | below the threshold

The binders below were run against T11, NHERF3_3, Q5T2W1 (assay: holdup assay). Settings: modified: phospho on T at position -2 from the C-terminal residue.
Set-up: key: below the threshold = too weak to quantify, mostly under pKd 3.1 to 4

Binder | pKd
B1 | below the threshold

Each binder was assayed against Inadl_3, Q8NI35 (assay: holdup assay). Settings: modified: phospho on T at position -2 from the C-terminal residue.
Sequence of Inadl_3, Q8NI35 (Q8NI35 359-469): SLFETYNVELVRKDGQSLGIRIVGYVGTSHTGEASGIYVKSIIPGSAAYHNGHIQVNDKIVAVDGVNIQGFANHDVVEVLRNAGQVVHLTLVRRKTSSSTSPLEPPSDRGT
Set-up: key: below the threshold = too weak to quantify, mostly under pKd 3.1 to 4

Binder | pKd
B1 | below the threshold

The binders below were run against DLG5_1, Q8TDM6 (assay: holdup assay). Settings: modified: phospho on T at position -2 from the C-terminal residue.
Sequence of DLG5_1, Q8TDM6 (Q8TDM6 617-713): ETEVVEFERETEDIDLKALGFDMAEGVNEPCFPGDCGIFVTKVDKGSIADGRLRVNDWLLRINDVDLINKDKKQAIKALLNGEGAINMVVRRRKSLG
Set-up: key: below the threshold = too weak to quantify, mostly under pKd 3.1 to 4

Binder | pKd
B1 | below the threshold

The binders below were run against GRIP2_3, Q9C0E4 (assay: holdup assay). Settings: modified: phospho on T at position -2 from the C-terminal residue.
Sequence of GRIP2_3, Q9C0E4 (Q9C0E4 238-339): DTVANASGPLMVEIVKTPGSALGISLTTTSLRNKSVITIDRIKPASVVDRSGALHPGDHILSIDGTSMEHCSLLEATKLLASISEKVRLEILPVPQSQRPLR
Set-up: key: below the threshold = too weak to quantify, mostly under pKd 3.1 to 4

Binder | pKd
B1 | below the threshold

What follows are binders tested against GOPC, Q9HD26 (assay: holdup assay). Settings: modified: phospho on T at position -2 from the C-terminal residue.
Set-up: key: below the threshold = too weak to quantify, mostly under pKd 3.1 to 4

Binder | pKd
B1 | below the threshold

Each binder was assayed against T12, APBA1_2, Q02410 (assay: holdup assay). Settings: modified: phospho on T at position -2 from the C-terminal residue.
Set-up: key: below the threshold = too weak to quantify, mostly under pKd 3.1 to 4

Binder | pKd
B1 | below the threshold

These binders were tested against T13, MPDZ_12, O75970 (assay: holdup assay). Settings: modified: phospho on T at position -2 from the C-terminal residue.
Set-up: key: below the threshold = too weak to quantify, mostly under pKd 3.1 to 4

Binder | pKd
B1 | below the threshold

Each binder was assayed against T14, PDZD7_3, Q9H5P4 (assay: holdup assay). Settings: modified: phospho on T at position -2 from the C-terminal residue.
Set-up: key: below the threshold = too weak to quantify, mostly under pKd 3.1 to 4

Binder | pKd
B1 | 3.61

These binders were tested against ARHGEF12, Q9NZN5-2 (assay: holdup assay). Settings: modified: phospho on T at position -2 from the C-terminal residue.
Sequence of ARHGEF12, Q9NZN5-2 (Q9NZN5 other isoform, or with tags, fused parts or gaps): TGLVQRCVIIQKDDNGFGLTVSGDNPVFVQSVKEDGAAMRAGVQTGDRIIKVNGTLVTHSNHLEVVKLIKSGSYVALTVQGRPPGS
Set-up: key: below the threshold = too weak to quantify, mostly under pKd 3.1 to 4

Binder | pKd
B1 | below the threshold
